Test: label from the status in PepcDB records

MKENEYRFIMRIFVLVSFTAVLMIAVPFLDTIAFACAFAYMTEPFFNAVRRYAGRTLGAILSILMVTVPALSLVVLILSDVVEFLNTLNVPSLVDTTIQFVNYLGLQNIAQEDLNRILSELWTFLKPTINKMAEQIYGIPLLFIKGLITVFLTYYFLKDGHRFKDAIMPHVPEVYHVQTELFIRKLNEAYKNLFVVNALTSFTVGLISIAGFWAIGLPNPVTLGALSGILTLLPIVGGWTIYMPLSLYYIAVGMYTKAILLFGFGVIFLSLAPDFAIRPRLVNHESDIHPAIALVAFLMGPLALGVTGFALGPLIMGTFDAIFRVKNGKDSIINLK
protein production: failed

MAKTDRSQPSVLARIAAFRTGLSAEASAADYLERQGYRILARRFKTRCGEIDLVAQRDALVAFVEVKARGNVDDAAYAVTPRQQSRIVAAAEAWLSRHPEHAMSELRFDAILIAPNTAPRHLPGAFDATP
protein production: not failed

MLMPRRMKYRKQQRGRLKGATKGGDYVAFGDYGLVALEPAWITAQQIEAARVAMVRHFRRGGKIFIRIFPDKPYTKKPLEVRMGKGKGNVEGYVAVVKPGRVMFEVAGVTEEQAMEALRIAGHKLPIKTKIVRRDAYDEAQ
protein production: not failed

MLSRILEKYRENGIQGIVLALISRFPGVRAVCVYYVYRLPFDKLVRKQLSVGNLKVVQVKSDSMGDLIRVQDKPDIFGERFQMGHYGFVAYVNNDPVAYLWGQEGPVHVERRFGFEVPIKDNQVFYYDSYTIPEWRKSGVGRALIQESIDFFKNGLGKSELIAIIETGNLVSQKTYERMGFVREAMHIHLDIIGKKINKQLARMVTQ
protein production: failed

CSPVRERRLEHQLEPGDTLAGLALKYGVTMEQIKRANRLYTNDSIFLKKTLYIPILTEPRDLFN
protein production: not failed

MQAVALENDVIRRFASGQMFPMAKLVLETAFQPIVEATTGTIFGYESLMRGHDRLGFSSPLALLDQAAADGELKAFEQMLASRALAKFSTLPDFSSATLFLNLDVRLIPHGDVILDKLVGHLARAGIPASSICFELSERFDNTSVPEFTSLIARMRKEGFKLAIDDFGAGHGEMKLLCDFPLDYLKIDRHFISGIDHLPRKQHLVRNIVNIAHVLGVRVIAEGIETEAEFLSCREFGVDLVQGWLIAKPTVFTSELPESFPHLNRVGVARRNSQTLDEILIRREIERLPTVFEHDSVDSVFELFRRNPQQAFFPVLNANGEPRGVINEYHLKEYIYRPFGRDLLKNKIYERTISHFVDPAPIVGLDADADQLMNMFASMGGMGGSACIILTENMRYAGIVSAASLIKVINEKQLKMAQDQNPLTALPGNRAIGGFIADSCSDGDETRFFCYCDFDNFKPFNDKYGFNAGDHAITLFSALMRRYFFAGDCFLGHIGGDDFFIGVRDWSVEELMEILERLLSDFHDDVAGLYSDEDRAAGCMKGQDRNGNERDFALLRCSIGVLTLPKGSIIANPERIGSEIASVKAAAKENEGGLVVRVFGEANLEHHHHHH
protein production: failed

MDHQFGYGVEVTGLSPSVTHNDLIDFFSFSGTIQDIDIVRSGEQACTAYVMFKDSYSQETAVLLTGATILDQRVCITRWGQHHEEFDFWNATSRGFEDESDSQHYAQRSEFNAGEAVTKAQEVVKIMLATGFVLGKDALSKAKAFDESHGVSAAAVARVSQLEQRIGLTDKIFTGLEAVRMTDQRYHVSDTAKSAVFATGRTAAAAATSVVNSSYFSSGALWLSGALERAAKAASDLGTRGSRQ
protein production: failed

MLLTREYIDKAFWQKLIAIGLPVSLQSMLFALLGVVDIFMVSLLGESATAAVGVGNRIFFFNLAVVFGLCGAVTVLASQYYGSGNMAGIRRTLAQSWCISILVTLPFIVLYAIFDEEIVSFMSDDPEYVTYARDYLVVTGFSLIATAIVVPIEAVLRSVGQTKLATNVSISAIVVNAVLNSVLIFGLFGFPQWGVFGAAVGTFVSRFFQTAVLIYFFYNRYAHLIPTKFDWAQGRLKQYRQKYFKVSLPMLVHDALWTGGLIVYSIIYGQLGVSELAIISFLSPIEGVLISTFMGFAVAASVLLGNDIGAKHYDRVEKTAWWYVLTSAILATLLFFLVWLSSPLIHHLLVLSPLTDAEMALNVCLVMALGMILRVFNMVGIGGVLKSGADIRYSIFIDTFGQWAIGIPLTYYTGMVLGLPLHFVLMSLLAEEFVKGVLTTYRIQSKRWINNMVEDDQTVTA
protein production: failed

MSLKDFAGRTAFVTGGANGVGIGLVRQLLNQGCKVAIADIRQDSIDKALATLEAEGSGPEVMGVQLDVASREGFKMAADEVEARFGPVSILCNNAGVNLFQPIEESSYDDWDWLLGVNLHGVVNGVTTFVPRMVERVKAGEQKGGHVVNTASMAAFLAAGSPGIYNTTKFAVRGLSESLHYSLLKYEIGVSVLCPGLVKSYIYASDDIRPDALKGEVKPVDKTAVERLAGVHEFGMEPDVIGARVIEAMKANRLHIFSHPDHKEELREVFDEIIAEYQDYPKDPGYDQRVAFEKFRADSFAEARRQSRAADEGHHHHHH
protein production: not failed

MDTVILITVIIVIVGLAFDFINGFHDIANAVATSISTRALKPRVAIGIAAVMNFLGAISFTGVAESLTKSIVDPFSLNNGEFVVLCGLIAAVIWNLMTWLVGMPSSSSHALIGAIAGASIASASSFSVLNWSGFTTIIIALIISPIIGFTVGYLIYSLFKHLFHDKKLGKMNRRFRFIQIGTAAAQAYSHGTNDAQKTMGIITLALVASGLLKESAGIPFWVQVSCAASMAIGSSVGGYRIIKTVGTKIMKITPVTGVASDLSSLSVIMTATLIHLPVSTTQVIDSSIMGVGTANHKKEVNWRTGKNMVVTWFITLPLAGLLAAVVYWISAAIFL
protein production: failed

MKTIGLLGGMSWESTIPYYRLINEGVKARLGGLHSASLVLHSVDFHDIEACQSAGDWDRAGEILAEAAVGLQQAGAEGIVLCTNTMHKVADAIAARCQVPFLHIADATGRAIAAKGQRRVALLGTRYTMEQTFYRGRLQEQFAIETLIPEADDRAQINQIIFDELCLGTFSEASRDYYLQTIAALAEQGAEGVIFGCTEIGLLVPAELSPLPVFDTAAIHAEDAVNFMLSAGPTPAA
protein production: failed

MFIHPHTSLTFEQCQKARVSRDSRFDGRFYVAVKTTGIFCRPICPANLPKEENVEYFTDKAQALKAGYRPCLRCRPDSAPGSWAWKGVETTFQRAISLIDRGELHHHSVSELAERVGISDRYLRMLFEQYLGMSPKQYAQYQQLMFAKQLLHSSSMSVTEVGFAAGFNSTRRFNDAFQKFLKLTPSQVRRREFDGVSTNRIALSYRGELNWQHMLDFYRLRAIEGVERVSGESYQRNVCLDNSKAWFKAIKGEGNLELEFEIEEVAKLQNLVSGIRRMFDLDTDICTVEQHLDYVAPGLVSNRGIRIPGVWNAWEAGVRAVLGQQVSVKAAIGQLNLLVKTLSGDADKRFFPTPDAIANADVSFLRMPQSRKETLVRFAQFMQSNAETDPQQWLALKGIGPWTVSYAQLRGQSQPDCFLDKDLVVKKAMQRYPSLNTHTAAPWGSYATFHLWNQS
protein production: failed

LKCSTVVCVICLEKPKYRCPACRVPYCSVVCFRKHKEQCNPET
protein production: not failed

LKLEVVEDKQYGRLANRIENVVSQERTRKKFESLVSDSPDGIVHLTTNGTILSVNPSMAGRLGADPDTLVGQQLSAVMDSEAANQRLEAGKSAVENGTATRSEDAVGGRHYHNQYIPVDSHR
protein production: failed

MRLLISLIAGALFGGGLFVSGMTDTRKVQGWLDVFGDWDPTLAFVMGGAILPMLLAWRLTEGRKPLAGGSFPALPRPEMDHRLITGSVLFGMGWGLAGLCPGPAIASLSYGGVGGLIFLVAMLAGMAVAPRVGTQLDRLAATA
protein production: failed

MIRMTKVDIISGFLGAGKTTFIKQLINQAFAGEKLVLIENEFGEIGIDGGFLKNAGIEITEMNSGCICCTLVGDFSKALKKVLEEYQPDRVIIEPSGVGKLSDIMKAIEDVKKDADIAIDGRITVVDGKKAKLYLKNFGEFFKDQVEHASAIVISRTQAMSDDKIEECVHMLRDENKEAAIISTPWAQLGKEAIIHALEKGSELAGLLEETHGQECCHHEHHHHEHEACGHEHHHHHADEIFTSWGKETAHKYTKEELDFMLKALSETEAYGTVLRSKGIIQMSDGSWRQFDLVPQEYEVREGQPDYTGRLCVIGTDLKEEELMTLFHLKLEHHHHHH
protein production: failed

MNNTKTYSKTSIALHWIVGLAFIGVFIIGAYLSDLPRGPEKMELVALHKSFGVLILLIALARVFWRIKEGAIPPASVMPAWQEKVAKAVHGLLLLATLAMPLSGIAMNIGGGRALEVFGYTLVAAGEKVVWLQELGAAVHKTAPPIIIAIVLLHIAAVLKHHLIDKDATMARMLGRG
protein production: failed

— a protein production outcome set (Wang et al. 2014)
